Measured values taken from patent publication US20250152729A1 (CANCER RESEARCH TECHNOLOGY, published 2025).

Target: T1, recombinant human SEMA4A AviHis10, biotinylated (human, UniProt Q9H3S1 33-683, biotin on the Avi tag (BirA))
T1 construct: The text says amino acids 33-683 of Q9H3S1 with C-terminal Avi tag and His10 tag; also called avi-SEMA4A-His10
T1 sequence: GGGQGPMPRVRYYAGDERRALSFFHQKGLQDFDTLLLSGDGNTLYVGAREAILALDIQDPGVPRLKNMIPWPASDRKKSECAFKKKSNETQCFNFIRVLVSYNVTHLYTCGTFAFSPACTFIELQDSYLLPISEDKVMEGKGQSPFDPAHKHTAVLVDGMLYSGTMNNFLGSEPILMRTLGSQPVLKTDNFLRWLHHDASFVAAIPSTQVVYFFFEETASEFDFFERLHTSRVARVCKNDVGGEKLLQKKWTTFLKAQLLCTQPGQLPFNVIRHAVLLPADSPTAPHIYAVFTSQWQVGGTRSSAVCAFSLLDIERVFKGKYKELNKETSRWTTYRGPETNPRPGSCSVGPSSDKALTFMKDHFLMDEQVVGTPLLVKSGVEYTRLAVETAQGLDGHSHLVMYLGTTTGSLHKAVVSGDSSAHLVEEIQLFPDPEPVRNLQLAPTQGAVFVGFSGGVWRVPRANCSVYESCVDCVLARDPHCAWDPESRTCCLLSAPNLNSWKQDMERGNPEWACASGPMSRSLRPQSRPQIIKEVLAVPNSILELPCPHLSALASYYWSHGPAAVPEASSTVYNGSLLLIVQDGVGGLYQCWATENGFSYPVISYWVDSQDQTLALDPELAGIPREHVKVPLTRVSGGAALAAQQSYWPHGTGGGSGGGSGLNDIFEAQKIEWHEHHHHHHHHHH
Test: BLI (OctetRED), biotinylated SEMA4A on streptavidin tip, IgG as analyte, 1:1 model; KD(observed) IgG; human SEMA4A; IgG, not Fab
Description: An Octet Kinetics buffer (PBS containing 0.01% (v/v) BSA and 0.002% (v/v) Tween20) is typically used as the diluent buffer for the analyte samples and as the flow buffer during the dissociation phase. The experimental data is recorded as shift in interference pattern (nm) over time, which is directly proportional to the optical thickness at the biosensor tip, which in turn is an approximate measure of the mass of analyte bound. The proprietary Octet Data Analysis software package can then be used to process data and fit binding models to the data sets. Returned association (ka, M-1 s-1) and dissociation (kd, s-1) rate constants allow calculation of dissociation (KD, M) affinity constants.
The affinity of binding between the analytes (humanised and phage display derived IgGs as human Alya IgG1s and Fabs) and human SEMA4A and cynomolgus SEMA4A, was estimated using assays in which the biotinylated SEMA4A antigen was captured on a streptavidin sensor tip. A fresh sensor tip was used for each measurement and no regeneration was used. A series of dilutions of the lead Fabs and human Alya IgG1s (3.25-240 nM) were individually placed in contact with the ligand surface for a sufficient amount of time to observe sensorgrams that could be fitted to an appropriate binding model with confidence (typically 5 minutes), followed by an appropriate length of dissociation time (typically 10 minutes). […]

B1: mouse 5E3 expressed as human IgG1 Alya (antibody, V domains shown)
VH: QVQLQQPGAELVMPGASVKMSCKASGYTFTDYWMHWVKQRPGQGLEWIGAIDTSDSYTSYNQKFKGKATLTVDESSSTAYMQLSSLTSEDSAVYYCARDYGNFYYYAMDYWGQGTSVTVSS
VL: QAVVTQESALTTSPGETVTLTCRSSTGAVTTSNYANWVQEKPDHLFTGLIGGTNNRAPGVPARFSGSLIGDKAALTITGAQTEDEAIYFCALWYSNHWVFGGGTKLTVL
notes: Mouse variable domains on human IgG1 Alya constant (pEU1.22; 239iCys and S442C, EU numbering); purified, unconjugated; also called 5E3 IgG1 Alya
  Kd: ≤ 1 nM
